Target: S. cerevisiae Arf1 (residues 18–181) with a C-terminal GST tag (S. cerevisiae) (UniProt P11076)
Experiment: pull-down

Sequence of S. cerevisiae Arf1 (residues 18–181) with a C-terminal GST tag (S. cerevisiae) (P11076 18-181): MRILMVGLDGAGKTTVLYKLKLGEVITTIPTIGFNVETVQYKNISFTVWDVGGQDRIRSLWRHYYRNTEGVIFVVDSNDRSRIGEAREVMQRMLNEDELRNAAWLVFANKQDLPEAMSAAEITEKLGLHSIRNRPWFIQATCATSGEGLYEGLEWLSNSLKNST

- percent of the binding capacity of wild-type protein: 90%
Substance: γζ-COP dimer with full-length γ-COP L128E (from UniProt P53620 1-874; P35604 1-177) (complex)

— paper PMC3285272
